In assay [1] the target is P7, fluorescein-labelled proline-rich peptide from the SOS1 proline-rich domain (human). Nature of the assay: fluorescence polarisation; 0.2 µM fluorescein-labelled peptide, SH3 domain titrated 0 to 200 µM; 30 mM Tris/HCl pH 7.5, 5 mM MgCl2, 3 mM DTT, 25 °C; quadratic ligand binding equation.
Assay [2] concerns the target SOS1 P7 (Homo sapiens), Q07889. Nature of the assay: fluorescence polarization.

B1: ARHGAP12 SH3 domain, GST cleaved (domain or fragment)
chain: PGQVYIEVEYDYEYEAKDRKIVIKQGERYILVKKTNDDWWQVKPDENSKAFYVPAQYVKEVTR
The molecule B1 gave a Kd in assay [1] of 200 nM. In other words, the sub-micromolar range.

B2: ARHGAP12 SH3, Q8IWW6 (protein)
chain: KIIPGQVYIEVEYDYEYEAKDRKIVIKQGERYILVKKTNDDWWQVKPDENSKAFYVPAQYVKEVTRKAL
B2 registered a Kd in assay [2] of less than 500 nM.

The values are drawn from paper PMC10814857, “Functional Classification and Interaction Selectivity Landscape of the Human SH3 Domain Superfamily” (Cells, 2024).
